Experimental data published in patent EP4617282A1 (Institute Of Pathogen Biology, Chinese Academy Of Medical …, dated 2024).

How the values were obtained:
[1] = biological target: HIV-1NL4-3 Env (envelope glycoprotein of the HIV-1NL4-3 pseudovirus) (HIV-1 (strain NL4-3)); test: cell-based or functional assay
[2] = biological target: HIV-1JRFL Env (envelope glycoprotein of the HIV-1JRFL pseudovirus) (HIV-1 (strain JRFL)); test: cell-based or functional assay

Binder | average IC50, inhibition of pseudovirus infection of TZM-bl cells (luciferase) [1] [pM] | average IC50, inhibition of pseudovirus infection of TZM-bl cells (luciferase) [2] [pM] | IC50, inhibition of pseudovirus infection of TZM-bl cells (luciferase) [1] [pM] | fold reduction of antiviral activity as compared to lipopeptide LP-101 [1] [fold] | IC50, inhibition of pseudovirus infection of TZM-bl cells (luciferase) [2] [pM] | fold reduction of antiviral activity as compared to lipopeptide LP-101 [2] [fold]
Ac-EIEELEKKIEELLKKAEEQQKKNEEELKKLEK-NH2 (not fully specified (residue 32)) [lipopeptide LP-101] | 0.46 | 2.26 | – | – | – | –
Ac-WEEWEKKIEELEKKIEELLKKAEEQQKKNEEELKKLEK-NH2 (not fully specified (residue 38)) [lipopeptide LP-104] | – | – | 14.5 | ~32 | 60.2 | ~27
Ac-YEQKIEELLKKAEEQQKKNEEELKKLEK-NH2 (not fully specified (residue 28)) [lipopeptide LP-98] | 1.07 | 2.58 | – | – | – | –
